Data: PMC12098869, “An mRNA-display derived cyclic peptide scaffold reveals the substrate binding interactions of an N-terminal cysteine oxidase” (Nature Communications, 2025)
Several values for one entry are separate records, joined by “and”; a condition that tells them apart may be missing. Identical values can stand only once.

Key:
Assay in all cases: SPR; biotinylated ADO or ADO mutant immobilised on a Biotin CAP chip (~2500-3000 RU), substrate peptide injected; Biacore T200, 4 °C; 20 mM HEPES pH 7.5, 500 mM NaCl, 10 mM DTT, 0.1% tween-20; 50 µL/minute; multi-cycle or single-cycle mode not given; each cell is one of three independent measurements
Settings in all cases: both partners purified
[1] = molecular target: T1, ADO-Y87A, N-terminally His-tagged and biotinylated (human, UniProt Q96SZ5 1-270, Y87A, biotin (biotinylated during expression))
T1 construct: 2-aminoethanethiol dioxygenase (ADO), human, UniProt Q96SZ5, full length, site-directed mutant; source: E. coli Rosetta2(DE3), purified (Ni-NTA, SEC); not shown: biotinylation tag (from the vector pQE80L-Navi), N-terminal, kept
T1 sequence (looked up): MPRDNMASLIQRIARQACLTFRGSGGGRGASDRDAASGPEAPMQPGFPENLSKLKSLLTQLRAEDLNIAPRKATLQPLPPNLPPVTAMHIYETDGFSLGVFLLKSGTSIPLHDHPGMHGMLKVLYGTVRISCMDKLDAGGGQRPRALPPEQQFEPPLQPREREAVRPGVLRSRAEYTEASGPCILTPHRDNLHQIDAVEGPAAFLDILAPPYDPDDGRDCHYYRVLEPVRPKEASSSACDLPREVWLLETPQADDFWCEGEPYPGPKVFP

[2] = molecular target: T2, ADO-Y212F, N-terminally His-tagged and biotinylated (human, UniProt Q96SZ5 1-270, Y212F, biotin (biotinylated during expression))
T2 construct: 2-aminoethanethiol dioxygenase (ADO), human, UniProt Q96SZ5, full length, site-directed mutant; source: E. coli Rosetta2(DE3), purified (Ni-NTA, SEC); not shown: biotinylation tag (from the vector pQE80L-Navi), N-terminal, kept
T2 sequence (looked up): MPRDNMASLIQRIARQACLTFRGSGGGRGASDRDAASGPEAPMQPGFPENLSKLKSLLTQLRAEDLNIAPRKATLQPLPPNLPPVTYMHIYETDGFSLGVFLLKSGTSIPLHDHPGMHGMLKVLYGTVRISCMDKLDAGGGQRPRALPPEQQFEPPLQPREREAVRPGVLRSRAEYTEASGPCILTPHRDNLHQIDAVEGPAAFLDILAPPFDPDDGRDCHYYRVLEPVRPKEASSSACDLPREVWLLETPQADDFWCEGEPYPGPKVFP

[3] = molecular target: T3, ADO-Y222A, N-terminally His-tagged and biotinylated (human, UniProt Q96SZ5 1-270, Y222A, biotin (biotinylated during expression))
T3 construct: 2-aminoethanethiol dioxygenase (ADO), human, UniProt Q96SZ5, full length, site-directed mutant; source: E. coli Rosetta2(DE3), purified (Ni-NTA, SEC); not shown: biotinylation tag (from the vector pQE80L-Navi), N-terminal, kept
T3 sequence (looked up): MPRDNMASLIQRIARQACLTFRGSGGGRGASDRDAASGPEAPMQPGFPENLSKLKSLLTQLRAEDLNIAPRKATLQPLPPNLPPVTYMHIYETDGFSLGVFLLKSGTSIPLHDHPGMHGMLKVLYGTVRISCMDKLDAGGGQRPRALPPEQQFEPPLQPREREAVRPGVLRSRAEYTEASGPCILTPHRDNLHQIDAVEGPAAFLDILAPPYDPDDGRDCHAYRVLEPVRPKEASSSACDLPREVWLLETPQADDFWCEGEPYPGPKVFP

[4] = molecular target: T4, ADO-D206E, N-terminally His-tagged and biotinylated (human, UniProt Q96SZ5 1-270, D206E, biotin (biotinylated during expression))
T4 construct: 2-aminoethanethiol dioxygenase (ADO), human, UniProt Q96SZ5, full length, site-directed mutant; source: E. coli Rosetta2(DE3), purified (Ni-NTA, SEC); not shown: biotinylation tag (from the vector pQE80L-Navi), N-terminal, kept
T4 sequence (looked up): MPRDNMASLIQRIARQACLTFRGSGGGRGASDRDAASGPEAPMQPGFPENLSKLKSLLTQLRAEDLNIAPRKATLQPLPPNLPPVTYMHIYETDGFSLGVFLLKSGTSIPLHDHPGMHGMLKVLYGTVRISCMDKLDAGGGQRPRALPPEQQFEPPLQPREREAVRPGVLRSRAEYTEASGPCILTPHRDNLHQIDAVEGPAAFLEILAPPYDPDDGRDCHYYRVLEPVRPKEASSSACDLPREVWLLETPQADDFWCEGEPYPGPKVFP

[5] = molecular target: T5, ADO-Y212A, N-terminally His-tagged and biotinylated (human, UniProt Q96SZ5 1-270, Y212A, biotin (biotinylated during expression))
T5 construct: 2-aminoethanethiol dioxygenase (ADO), human, UniProt Q96SZ5, full length, site-directed mutant; source: E. coli Rosetta2(DE3), purified (Ni-NTA, SEC); not shown: biotinylation tag (from the vector pQE80L-Navi), N-terminal, kept
T5 sequence (looked up): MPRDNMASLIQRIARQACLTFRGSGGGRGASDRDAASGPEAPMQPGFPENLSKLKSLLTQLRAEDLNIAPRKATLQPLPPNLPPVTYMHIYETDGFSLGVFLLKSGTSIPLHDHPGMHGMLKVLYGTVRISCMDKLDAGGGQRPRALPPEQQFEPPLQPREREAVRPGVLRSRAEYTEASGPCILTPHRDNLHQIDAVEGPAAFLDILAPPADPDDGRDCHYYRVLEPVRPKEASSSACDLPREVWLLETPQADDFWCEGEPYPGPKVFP

B1: IL32(2-15), synthetic peptide corresponding to the methionine excised N-terminus of IL32, residues 2-15 (peptide, UniProt P24001 2-15, looked up)
peptide: CFPKVLSDDMKKLK
notes: interleukin 32 (IL32), residues 2-15 (N-terminal Cys exposed); also called 14-mer IL32; source: synthetic peptide
- Kd [1]: 4.57 µM and 3.79 µM and 4.17 µM
- Kd [2]: 8.76 µM and 9.12 µM and 9.82 µM
- Kd [3]: 921 nM and 1040 nM and 1100 nM
- Kd [4]: 1210 nM and 1270 nM and 1440 nM
- Kd [5]: 34 µM and 24.7 µM
